Laboratory results as given in US20230167458A1, “FORSKOLIN-INDUCIBLE PROMOTERS AND HYPOXIA-INDUCIBLE PROMOTERS” (ASKLEPIOS BIOPHARMACEUTICAL, INC., priority 2020, published 2023).

Legend:
HEK293-F = assay: Luciferase time course after forskolin induction, transient transfection of suspension HEK293-F; format: cell-based, human; conditions: 20 µM forskolin
Method: The tested promoters were synthesised directly upstream of the ATG of PM-RQ plasmid and the suspension cell lines were transiently transfected with the PM-RQ plasmid.
40 ml of cells were grown in a 250 ml vented Erlenmeyer flask (Sigma-Aldrich CLS431144) at 37° C., 20% O2, 8% CO2 with agitation at 100 rpm. Cells were seeded as described in the manufacturer's instructions (300,000 cells/ml). HEK293-F were obtained from Thermofisher, R79007.
One day before transfection, the cells were counted using a haemocytometer and split to 500,000 cells/ml.
On the day of transfection, the cells are seeded to 1,000,000 cells/ml in 500 μl of appropriate medium (Freestyle 293 expression medium, 12338002) in a 24 well plate. […] of DNA per well was then added to 10 μl of OptiMem medium (Thermofisher; 11058021) and incubated for 5 minutes at room temperature.
Concurrently, 0.625 μl of Max reagent (Thermofisher, 16447100) was made up to 10 μl by addition of OptiMem and incubated for 5 minutes at room temperature. After this incubation, both mixes were added to the same tube and incubated at room temperature for 25-30 minutes. […]
24 hours after transfection, the promoters were induced by addition of […] forskolin and luciferase activity was measured 0, 3, 5 and 24 hours after induction. Luciferase activity was measured as previously described.

CHO-GS-KSV1 cell line = assay: SEAP expression in stably transfected CHO-GS-KSV1, forskolin or NKH477 induction; format: cell-based, chinese hamster; conditions: stable CHO-GS-KSV1, SEAP, forskolin or NKH477
Method: The forskolin-inducible promoters were then tested in a stably transfected CHO-GS-KSV1 cell line.
• CD-CHO media (Life technologies, CAT #10743029) • Corning 125 mL Polycarbonate Erlenmeyer Flask with Vent Cap (CAT #734-1885). • Gene Pulser® Electroporation Cuvettes, 0.4 cm gap (BioRad, CAT #165-2088) • Gene Pulser Xcell Total System (BioRad, CAT, #1652660) • GS-vector DNA ([…] in 100 μL TE buffer) linearised with Sca1 • Suspension cultures of CHOK1SV GS-KO host cells.
Cell suspensions of 6×10^5 cells per mL were incubated on an orbital shaker set at 8% CO2, 20% O2, 37° C., 85% relative humidity and 140 rpm overnight. 2.86×10^7 cells were centrifuged at 200 g for 3 minutes. Media was then aspirated and cell pellet resuspended in 2 mL fresh CD-CHO media to obtain a concentration of 1.43×10^7 cells per mL. 700 μL of cell suspension was added to each of two electroporation cuvettes each containing […] of linearised DNA in 100 μL of sterile TE buffer (Thermofisher, 12090015). Each cuvette was electroporated, delivering a single pulse of 300V, […] with resistance to infinity. Immediately after delivery of pulse electroplated cells were transferred to Erlenmeyer 125 mL flask containing 20 mL of CD-CHO media pre-warmed to 37° C. Electroporated cells from two cuvettes are combined into a single 125 mL flask to generate one pool of cells. Cells are cultured on an orbital shaker set at 8% CO2, 20% O2, 37° C., 85% relative humidity and 140 rpm. Cells are transferred to fresh CD-CHO media 24 hours after transfection and cell cultures monitored and given fresh CD-CHO media every 2-4 days. Usually after about 10-14 days cell numbers will be high enough to start passaging.
The transfected DNA was the pXC-17.4 expression vector (Lonza Biologics plc) where one of the promoter constructs (or a control promoter (CMV-IE) have been cloned upstream of the secreted alkaline phosphatase (SEAP) gene, which had been cloned into the multiple cloning site within the vector expression cassette. Promoters were closed into the pXC-17.4 vector using Gibson assembly. The pXC-17.4 expression vector is designed for making stable cell lines in the CHO-GSK1SV cell line as it contains the […] gene which has been knocked out of the cell line. Therefore, selection of cells in glutamine drop-out medium will select for cells that have stably integrated the plasmid.
The responsiveness of the RTV-019 promoter to different concentrations of forskolin and […] was tested in the stably transfected CHO-GS-KSV1 cell line. To this end, the stably transfected CHO-GS cells were seeded at 500,000 cells/ml and allowed to grow for 24 hrs. At this point the cells were induced by addition of the respective concentrations of forskolin and NKH477 and SEAP expression was measured as described below after 24 hours.
The promoter activity and inducibility of FMP-02, FORCYB-001, RTV-017, FORCSV-10, FOR-CMC-009, FLP-01 and RTV-019 were also tested in the stably transfected CHO-GS-KSV1 cell line. To this end, the stably transfected CHO-GS cells were seeded at 500,000 cells/ml and allowed to grow for 24 hrs. At this point the cells were exposed to […] forskolin or […] NKH477 for 24 hours. After this point, the SEAP activity in the medium was assessed as described below.
SEAP Reporter Gene Assay, chemiluminescent (Roche, CAT #11 779 842 001) was used to measure SEAP activity as per the manufacturer's protocol. All reagents and samples were fully pre-equilibrated at room temperature. Culture supernatant was collected from the stably transfected CHO-GS at the specific time points (0 h and 24 h). The supernatant was diluted 1:4 in dilution buffer and heat treated at 65° C. for 30 minutes. The heat-treated sample was then centrifuged for 30 s at maximum speed. 50 μl of the heat-treated sample was then added to 5 μl of inactivation buffer and incubated for 5 min at room temperature. 50 μl of substrate reagent was then added and incubated for 10 min at room temperature. […]

B1: RTV-019: synthetic forskolin-inducible promoter, SEQ ID NO: 44; 3× ATF6, 4× AP1(1) and 3× HRE1 TFBS and CMV-MP (nucleic acid)
DNA: TGACGTGCTGATGATGCGTAGCTAGTAGTTGACGTGCTGATGATGCGTAGCTAGTAGTTGACGTGCTGATGATGCGTAGCTAGTAGTTGAGTCAGATGATGCGTAGCTAGTAGTTGAGTCAGATGATGCGTAGCTAGTAGTTGAGTCAGATGATGCGTAGCTAGTAGTTGAGTCAGATGATGCGTAGCTAGTAGTCTGCACGTAGATGATGCGTAGCTAGTAGTCTGCACGTAGATGATGCGTAGCTAGTAGTCTGCACGTAGATGATGCGTAGCTAGTAGTGCAGTTAGCGTAGCTGAGGTACCGTCGACGATATCGGATCCAGGTCTATATAAGCAGAGCTCGTTTAGTGAACCGTCAGATCGCCTAGATACGCCATCCACGCTGTTTTGACCTCCATAGAAGATCGCCACC
modifications: Synp-RTV-019
notes: 3× ATF6, 4× AP1(1) and 3× HRE1 TFBS and CMV-MP
relative rank of promoter (fold induction/strength) (HEK293-F): strongest | relative rank of promoter strength (CHO-GS-KSV1 cell line): strongest
